Measurements: PMC13544220, “Glycemic and bodyweight effects of GIPR coding variation reflect differences in surface expression and intrinsic functional impairment” (Science Advances, 2026)

Tests used:
[1] = system: wild-type and variant SNAP-GIPR in Gipr-/- mouse islets; assay: Insulin secretion from Gipr-/- mouse islets transduced with GIPR adenoviruses; format: cell-based; settings: Fig 6D, Gipr-/- mouse islets
Method: (§1) Isolated islets used for insulin secretion assays were treated in 1.5-ml microcentrifuge tubes. Eight-ten islets were used per well with two-three technical replicates per condition. […] At the end of the treatment, supernatants containing the secreted insulin or glucagon were collected, centrifuged at 1000g for 5 min, and transferred to fresh tubes. […] The lysates were sonicated 3× for 10 s in a water bath and centrifuged at 10,000g for 10 min, and the supernatants were collected. The samples were stored at −20°C until the insulin or glucagon concentrations were determined using an Insulin Ultra-Sensitive HTRF Assay kit (62IN2PEG, Revvity) or an HTRF Glucagon Detection Kit (62CGLPEG, Revvity) respectively, according to the manufacturer’s instructions. GraphPad Prism 9.0 was used for the generation of the standard curve and sample concentration extrapolation. The total insulin or glucagon content was calculated by adding the secreted insulin to the insulin content of the lysates, and secretion was reported as the percentage release of total. The percent secretion of islets treated with agonist was normalized to that of islets treated with vehicle and reported as a fold change.

[2] = system: wild-type and variant SNAP-GIPR in wild-type mouse islets; assay: Insulin secretion from wild-type mouse islets transduced with GIPR adenoviruses; format: cell-based; settings: Fig 6F
Method: as §1, with “The samples were stored at −20°C until the insulin or glucagon concentrations were determined using an Insulin Ultra-Sensitive HTRF Assay kit (62IN2PEG, Revvity) or an HTRF Glucagon Detection Kit (62CGLPEG, Revvity) respectively, according to the manufacturer’s instructions.” left out

[3] = system: wild-type and variant SNAP-GIPR in Gipr-/- mouse islets; assay: Glucagon secretion from Gipr-/- mouse islets transduced with GIPR adenoviruses; format: cell-based; settings: Fig S6C, Gipr-/- mouse islets
Method: as §1

[4] = system: wild-type and variant SNAP-GIPR in Gipr-/- mouse islets; assay: Surface SNAP-GIPR expression in pancreatic islets; format: cell-based, human; settings: Fig 6B
Method: Islets were purified from Gipr^−/− mice as described in the “Islet isolation and culture” section. Islets were transduced with adenoviral wild-type or variant SNAP-tagged GIPR constructs (VectorBuilder) per the manufacturer’s instructions. All variants were tested in parallel on each occasion to control for transduction efficiency. Twenty-four hours posttransduction, whole, intact islets were labeled with SNAP-Surface Alexa Fluor 647 for 15 min at 37°C. Following labeling, the islets were placed in a drop of PBS in the center of a glass-bottom MatTek dish and imaged on a Zeiss LSM 780 inverted confocal microscope fitted with a 63X/1.4 NA oil immersion objective. Receptor surface levels were quantified in Fiji using a macro using full width at half maximum (FWHM) designed by the Facility for Imaging and Light Microscopy (FILM) at Imperial College London and expressed relative to wild-type GIPR. In additional experiments, islets transduced as above and labeled with SNAP-Surface-647 were fixed in 4% paraformaldehyde, permeabilized in 0.5% (v/v) Triton X-100 in PBS (15 min), washed once with PBS and incubated in blocking buffer (PBS and 1% BSA) for 1 hour, and incubated overnight at 4°C in primary antibodies against insulin (1:50; Dako IR002, Agilent Technologies) and glucagon (1:500; G2654, Sigma-Aldrich) in blocking buffer.

[5] = system: wild-type and variant SNAP-GIPR; assay: Constitutive and agonist-mediated internalization, reversible SNAP-tag labelling, INS-1 cells; format: cell-based, human; set-up: key to Internalisation, GIP-only / Internalisation, Vehicle / Internalisation, +GIP: % internalization: residual fluorescence after Mesna vs pre-Mesna; settings: Mean; for +GIP internalisation (100 nM) / GIP-specific internalisation (100 nM) / Constitutive internalisation (100 nM): Fig 4G; for +GIP internalisation (100 nM) / GIP-specific internalisation (100 nM): GIP 100 nM; for Internalisation, +GIP / Internalisation, GIP-only / Internalisation, Vehicle: Fig S4C, INS-1
Outline: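 Percentage internalization calculated as specific SNAP fluorescence remaining after 10 min Mesna exposure, relative to pre-Mesna signal, imaged in TNE buffer (pH 8.6).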

Molecule	Insulin secretion, ratio G11 + GIP / G11 ([1]; replicate 1)	Insulin secretion, ratio G11 + GIP / G11 ([1]; replicate 2)	Insulin secretion, ratio G11 + GIP / G11 ([1]; replicate 3)	Insulin secretion, ratio G11 + GIP / G11 ([1]; replicate 4)	Insulin secretion, ratio G11 + GIP / G11 ([2]; replicate 1)	Insulin secretion, ratio G11 + GIP / G11 ([2]; replicate 2)	Insulin secretion, ratio G11 + GIP / G11 ([2]; replicate 3)	Insulin secretion, ratio G11 + GIP / G11 ([2]; replicate 4)	Insulin secretion, ratio G11 + GIP / G11 ([2]; replicate 5)	Glucagon secretion, ratio G0.5 + GIP / G0.5 ([3]; replicate 1)	Glucagon secretion, ratio G0.5 + GIP / G0.5 ([3]; replicate 2)	Glucagon secretion, ratio G0.5 + GIP / G0.5 ([3]; replicate 3)	Glucagon secretion, ratio G0.5 + GIP / G0.5 ([3]; replicate 4)	Surface SNAP-GIPR expression in pancreatic islets ([4]; replicate 1)	Surface SNAP-GIPR expression in pancreatic islets ([4]; replicate 2)	Surface SNAP-GIPR expression in pancreatic islets ([4]; replicate 3)	Surface SNAP-GIPR expression in pancreatic islets ([4]; replicate 4)	Surface SNAP-GIPR expression in pancreatic islets ([4]; replicate 5)	+GIP internalisation (100 nM) [5]	GIP-specific internalisation (100 nM) [5]	also measured
R190Q (protein, left off: SNAP-tag, end not stated, kept) RAETGSKGQTAGELYQRWERYRRECQETLAAAEPPSGLACNGSFDMYVCWDYAAPNATARASCPWYLPWHHHVAAGFVLRQCGSDGQWGLWRDHTQCENPEKNEAFLDQRLILERLQVMYTVGYSLSLATLLLALLILSLFRRLHCTRNYIHINLFTSFMLRAAAILSQDRLLPRPGPYLGDQALALWNQALAACRTAQIVTQYCVGANYTWLLVEGVYLHSLLVLVGGSEEGHFRYYLLLGWGAPALFVIPWVIVRYLYENTQCWERNEVKAIWWIIRTPILMTILINFLIFIRILGILLSKLRTRQMRCRDYRLRLARSTLTLVPLLGVHEVVFAPVTEEQARGALRFAKLGFEIFLSSFQGFLVSVLYCFINKEVQSEIRRGWHHCRLRRSLGEEQRQLPERAFRALPSGSGPGEVPTSRGLSSGTLPGPGNEASRELESYC	0.6189	1.413	1.022	0.3777	1.037	0.9818	1.417	0.8398	1.788	0.4628	1.4505	0.8994	1.147	0.6777	0.189	0.9549	-0.2055	-0.1767	0.2705	0.0143	Constitutive internalisation (100 nM) [5]: 0.2562; Internalisation, +GIP [5]: 45.6067; Internalisation, GIP-only [5]: 2.692; Internalisation, Vehicle [5]: 42.915
R101H (protein) RAETGSKGQTAGELYQRWERYRRECQETLAAAEPPSGLACNGSFDMYVCWDYAAPNATARASCPWYLPWHHHVAAGFVLHQCGSDGQWGLWRDHTQCENPEKNEAFLDQRLILERLQVMYTVGYSLSLATLLLALLILSLFRRLHCTRNYIHINLFTSFMLRAAAILSRDRLLPRPGPYLGDQALALWNQALAACRTAQIVTQYCVGANYTWLLVEGVYLHSLLVLVGGSEEGHFRYYLLLGWGAPALFVIPWVIVRYLYENTQCWERNEVKAIWWIIRTPILMTILINFLIFIRILGILLSKLRTRQMRCRDYRLRLARSTLTLVPLLGVHEVVFAPVTEEQARGALRFAKLGFEIFLSSFQGFLVSVLYCFINKEVQSEIRRGWHHCRLRRSLGEEQRQLPERAFRALPSGSGPGEVPTSRGLSSGTLPGPGNEASRELESYC	2.4659	2.05	1.407	1.963	1.571	6.006	2.0139	1.2264	0.7288	1.2225	1.611	0.9333	0.8233	0.3446	0.4042	0.02787	0.08995	-0.05398	0.1025	-0.004871	Constitutive internalisation (100 nM) [5]: 0.1074; Internalisation, +GIP [5]: 52.1317; Internalisation, GIP-only [5]: -2.542; Internalisation, Vehicle [5]: 54.6733
E288G (protein) RAETGSKGQTAGELYQRWERYRRECQETLAAAEPPSGLACNGSFDMYVCWDYAAPNATARASCPWYLPWHHHVAAGFVLRQCGSDGQWGLWRDHTQCENPEKNEAFLDQRLILERLQVMYTVGYSLSLATLLLALLILSLFRRLHCTRNYIHINLFTSFMLRAAAILSRDRLLPRPGPYLGDQALALWNQALAACRTAQIVTQYCVGANYTWLLVEGVYLHSLLVLVGGSEEGHFRYYLLLGWGAPALFVIPWVIVRYLYENTQCWGRNEVKAIWWIIRTPILMTILINFLIFIRILGILLSKLRTRQMRCRDYRLRLARSTLTLVPLLGVHEVVFAPVTEEQARGALRFAKLGFEIFLSSFQGFLVSVLYCFINKEVQSEIRRGWHHCRLRRSLGEEQRQLPERAFRALPSGSGPGEVPTSRGLSSGTLPGPGNEASRELESYC	2.545	0.8478	2.186	1.083	0.8131	1.885	1.6101	1.127	2.303	2.014	1.482	1.8204	1.525	0.1066	0.6008	0.01404	-0.2745	-0.1674	0.1101	0.004755	Constitutive internalisation (100 nM) [5]: 0.1053; Internalisation, +GIP [5]: 49.4833; Internalisation, GIP-only [5]: 2.12; Internalisation, Vehicle [5]: 47.3633
